Experiment [1] has as its target T1, PDZ domain of the human MAST2 protein (human), Q6P0Q8.
T1 chain: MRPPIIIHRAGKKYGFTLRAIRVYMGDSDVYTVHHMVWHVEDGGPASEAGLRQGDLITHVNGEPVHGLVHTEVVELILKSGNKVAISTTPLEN

The target in experiment [2] is T1, PDZ domain of the human MAST2 protein …. As to the kind of experiment: ITC, 298 K, MAST2-PDZ titrated with peptide.

On to SWEVHGQQTRL (modifications not checked) [454 (Neurovita 3)], for which, in experiment [1], the gain of affinity as compared to Neurovita1 came out at 20 fold. In addition, in experiment [2], the TΔS (entropy) was 1110, the n (stoechiometry) worked out at 1.01 and the ΔH (enthalpy) was -8720.
